Results: CN115710315A (DONGGUAN PENGZHI BIOTECHNOLOGY CO LTD, dated 2023)

Target: T1, CA15-3抗原 (UniProt P15941 24-1097, limits assumed)
T1 construct: The origin of the antigen preparation used in the assays is not described; also called CA15-3(MUC1); CA15-3蛋白
Assay: BLI, AMC sensor, antibody immobilised at 10 ug/ml, CA15-3 antigen in serial dilution

T1 sequence (P15941 24-1097 limits assumed): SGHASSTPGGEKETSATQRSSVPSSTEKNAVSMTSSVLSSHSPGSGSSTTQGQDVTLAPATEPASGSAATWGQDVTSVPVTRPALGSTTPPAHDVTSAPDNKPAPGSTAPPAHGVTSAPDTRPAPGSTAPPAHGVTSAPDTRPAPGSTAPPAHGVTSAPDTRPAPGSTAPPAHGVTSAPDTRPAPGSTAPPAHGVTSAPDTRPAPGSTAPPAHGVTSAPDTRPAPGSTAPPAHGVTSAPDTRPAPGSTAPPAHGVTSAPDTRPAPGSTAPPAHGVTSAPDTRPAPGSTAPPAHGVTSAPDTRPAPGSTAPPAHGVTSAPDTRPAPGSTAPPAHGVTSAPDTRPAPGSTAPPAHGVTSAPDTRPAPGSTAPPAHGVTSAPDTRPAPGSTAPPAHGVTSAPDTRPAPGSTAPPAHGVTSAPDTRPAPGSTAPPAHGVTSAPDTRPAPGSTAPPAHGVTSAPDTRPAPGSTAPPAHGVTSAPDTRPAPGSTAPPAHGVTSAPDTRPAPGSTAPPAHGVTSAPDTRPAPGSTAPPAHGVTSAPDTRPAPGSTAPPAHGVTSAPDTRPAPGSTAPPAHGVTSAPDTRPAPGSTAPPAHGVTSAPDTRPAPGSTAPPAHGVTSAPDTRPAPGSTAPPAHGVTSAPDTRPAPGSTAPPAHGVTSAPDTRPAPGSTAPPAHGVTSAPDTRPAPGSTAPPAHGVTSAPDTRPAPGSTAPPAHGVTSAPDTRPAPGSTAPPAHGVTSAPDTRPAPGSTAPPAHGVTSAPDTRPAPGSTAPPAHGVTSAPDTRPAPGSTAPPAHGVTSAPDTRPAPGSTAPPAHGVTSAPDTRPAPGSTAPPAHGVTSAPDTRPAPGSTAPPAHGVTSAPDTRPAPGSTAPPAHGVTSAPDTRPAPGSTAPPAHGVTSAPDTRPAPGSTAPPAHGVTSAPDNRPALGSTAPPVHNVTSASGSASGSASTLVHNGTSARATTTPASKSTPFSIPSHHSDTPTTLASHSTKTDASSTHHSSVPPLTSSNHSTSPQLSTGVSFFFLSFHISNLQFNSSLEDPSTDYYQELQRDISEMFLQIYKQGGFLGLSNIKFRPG

| Kd [nM] | koff [s⁻¹] | kon [M⁻¹ s⁻¹] | Molecule |
| --- | --- | --- | --- |
| 84.5 | 0.00375 | 44400 | 对照 (antibody) |
| 5.17 | 0.000161 | 31100 | Anti-CA15-3 3F10 (antibody, V domains shown) VH: EVQLVESGGGLVKPGGSLKLSCAASGFAFSNYPMSWVRQTPEMRLEWVAYISSGGDSTYYPGTVKGRFTISRDNAKSALYLQMSSLKSEDTAMYYCTFWFRGFDYWGQGTTLTVSS VL: DVLMTQIPLSLPVSLGDQASLSCRSSQSIVHSNGNTYLEWYLQKPGQSPKLLIYKVSNRFSGVPDRFSGSGSGTDFTLKISRVEAEDLGVYYCFQGSHVPYTFGGGTKLEIK |
